Results on one substance are retold here after PMC2174084.

For this test, the target named is rabbit skeletal muscle actin, polymerized (F-actin) (rabbit) (UniProt P68135). Put plainly: co-sedimentation.

“full-length Kelch (purified, recombinant; ORF1 cDNA) (natural protein)”: the stoichiometry N (Kelch per actin (molar ratio)) was determined as 0.25.
